# Source: paper PMC11050134
# What was measured:
# [1] = molecular target: asialo-bovine submaxillary mucin (bovine)
# [2] = molecular target: asialo-fetuin (UniProt P12763)
# [3] = molecular target: asialo-porcine thyroglobulin (porcine) (UniProt F1RRV3)
# [4] = molecular target: asialo-transferrin (UniProt P02787)
# [5] = molecular target: bovine submaxillary mucin (bovine)
# [6] = molecular target: fetuin (UniProt P12763)
# [7] = molecular target: porcine thyroglobulin (porcine) (UniProt F1RRV3)
# [8] = molecular target: transferrin (UniProt P02787)
# [9] = molecular target: influenza viral envelope hemagglutinin, vaccine preparation (Denka-Seken) with a mixture of the hema (influenza A virus (H1N1, H3N2) and influenza B virus); experiment: SPR; BIAcore X100; […]; HBS-N (10 mM HEPES, 150 mM NaCl, pH 7.4), 30 μL/min, […], dissociation 600 s; Langmuir 1:1 fit
# [10] = molecular target: Halimeda borneensis lectin HBL40 (Halimeda borneensis); experiment: SDS-PAGE, non-reducing against reducing; purified HBL40 on 12% gel with and without 2% 2-mercaptoethanol, Coomassie stain; about 40 kDa non-reducing, 20 kDa reducing
substance,measurement,setting,value
Halimeda borneensis lectin HBL40 (natural protein),hemagglutination inhibition (trypsin-treated rabbit erythrocytes): lowest concentration of glycoprotein that completely inhibited the hemagglutination activity of a lectin solution of titer 4,[1],31.3 µg/mL
same,hemagglutination inhibition (trypsin-treated rabbit erythrocytes): lowest concentration of glycoprotein that completely inhibited the hemagglutination activity of a lectin solution of titer 4,[2],125 µg/mL
same,hemagglutination inhibition (trypsin-treated rabbit erythrocytes): lowest concentration of glycoprotein that completely inhibited the hemagglutination activity of a lectin solution of titer 4,[3],15.6 µg/mL
same,hemagglutination inhibition (trypsin-treated rabbit erythrocytes): lowest concentration of glycoprotein that completely inhibited the hemagglutination activity of a lectin solution of titer 4,[4],62.5 µg/mL
same,hemagglutination inhibition (trypsin-treated rabbit erythrocytes): lowest concentration of glycoprotein that completely inhibited the hemagglutination activity of a lectin solution of titer 4,[5],62.5 µg/mL
same,hemagglutination inhibition (trypsin-treated rabbit erythrocytes): lowest concentration of glycoprotein that completely inhibited the hemagglutination activity of a lectin solution of titer 4,[6],1000 µg/mL
same,hemagglutination inhibition (trypsin-treated rabbit erythrocytes): lowest concentration of glycoprotein that completely inhibited the hemagglutination activity of a lectin solution of titer 4,[7],31.3 µg/mL
same,hemagglutination inhibition (trypsin-treated rabbit erythrocytes): lowest concentration of glycoprotein that completely inhibited the hemagglutination activity of a lectin solution of titer 4,[8],500 µg/mL
same,Kd,[9],1210 nM
same,koff,[9],0.0433 s⁻¹
same,kon,[9],35600 M⁻¹ s⁻¹
same,stoichiometry N,[10],2
